Test results published in patent US20150322137A1 (EVEC, published 2015).

Key:
[1] = molecular target: T1, F protein of human metapneumovirus strain JPS02-76 (type B1), on infectious virus (human metapneumovirus, strain JPS02-76 …, UniProt Q6WB98 19-539); assay: cell-based or functional assay
[2] = molecular target: T2, F protein of human metapneumovirus strain JPS05-21 (type B2), on infectious virus (human metapneumovirus, strain JPS05-21 …); assay: cell-based or functional assay
[3] = molecular target: T3, F protein of human metapneumovirus strain JPS03-180 (type A1), on infectious virus (human metapneumovirus, strain JPS03-180 …); assay: cell-based or functional assay
[4] = molecular target: T1, F protein of human metapneumovirus …; assay: cell-based or functional assay; remark: listed apart in the source
[5] = molecular target: T4, F protein of human metapneumovirus strain JPS03-178 (type A2), on infectious virus (human metapneumovirus, strain JPS03-178 …); assay: cell-based or functional assay
[6] = molecular target: T2, F protein of human metapneumovirus …; assay: cell-based or functional assay; remark: listed apart in the source
[7] = molecular target: T3, F protein of human metapneumovirus …; assay: cell-based or functional assay; remark: listed apart in the source
[8] = molecular target: T4, F protein of human metapneumovirus …; assay: cell-based or functional assay; remark: listed apart in the source
[9] = molecular target: T2, F protein of human metapneumovirus …; assay: cell-based or functional assay; remark: listed apart in the source
[10] = molecular target: T3, F protein of human metapneumovirus …; assay: cell-based or functional assay; remark: listed apart in the source
[11] = molecular target: T1, F protein of human metapneumovirus …; assay: cell-based or functional assay; remark: listed apart in the source
[12] = molecular target: T4, F protein of human metapneumovirus …; assay: cell-based or functional assay; remark: listed apart in the source
[13] = molecular target: T2, F protein of human metapneumovirus …; assay: cell-based or functional assay; remark: listed apart in the source
[14] = molecular target: T3, F protein of human metapneumovirus …; assay: cell-based or functional assay; remark: listed apart in the source
[15] = molecular target: T1, F protein of human metapneumovirus …; assay: cell-based or functional assay; remark: listed apart in the source
[16] = molecular target: FP-TM(-)-His, His-Tag-added hMPV (JPS02-76) FP lacking the transmembrane region (amino acid residues 491 to … (human metapneumovirus, strain JPS02-76 …, UniProt Q6WB98 19-490)); assay: SPR, Biacore T-200; antibody captured by anti-human IgG, FP-TM(-)-His as analyte

Row | Binder | IC50, cell-to-cell spread inhibitory activity (LLC-MK2 cells stably expressing TMPRSS2) [1] | IC90, cell-to-cell spread inhibitory activity (LLC-MK2 cells stably expressing TMPRSS2) [1] | IC60, neutralizing activity (hMPV infection of LLC-MK2 cells; GraphPad Prism 6) [2] | IC60, neutralizing activity (hMPV infection of LLC-MK2 cells; GraphPad Prism 6) [3] | IC60, neutralizing activity (hMPV infection of LLC-MK2 cells; GraphPad Prism 6) [4] | IC60, neutralizing activity (hMPV infection of LLC-MK2 cells; GraphPad Prism 6) [5] | IC50, neutralizing activity (hMPV infection of LLC-MK2 cells; GraphPad Prism 6) [6] | IC50, neutralizing activity (hMPV infection of LLC-MK2 cells; GraphPad Prism 6) [7] | IC50, neutralizing activity (hMPV infection of LLC-MK2 cells; GraphPad Prism 6) [8] | IC90, neutralizing activity (hMPV infection of LLC-MK2 cells; GraphPad Prism 6) [9] | IC90, neutralizing activity (hMPV infection of LLC-MK2 cells; GraphPad Prism 6) [10] | IC90, neutralizing activity (hMPV infection of LLC-MK2 cells; GraphPad Prism 6) [11] | IC90, neutralizing activity (hMPV infection of LLC-MK2 cells; GraphPad Prism 6) [12] | IC50, neutralizing activity (hMPV infection of LLC-MK2 cells) [13] | IC50, neutralizing activity (hMPV infection of LLC-MK2 cells) [14] | IC50, neutralizing activity (hMPV infection of LLC-MK2 cells) [15] | Kd [16] | koff [16] | kon [16]
1 | EV046150 (antibody, human IgG1, kappa, V domains shown) VH: RVQLVQSGAEVKKPGSSVRVSCKASGGTFSNYSISWVRQVPGQGLEWMGRIIPILPLSSYPQQFQGRVAITADKSSTTAYMELSSLRIEDTAIYYCARDALRPEGGYYYYYFDVWGTGTTVTVSS VL: EIELTQSPGTLSLSPGERATLSCRANQIIGDTSLAWYQQKPGQAPRLLIFGASSRATGIPDRFSGSGFGSDFTLTITSLEPEDFAVYYCQQYGSSPTFGQGTKVEIKR | 16.6 ng/mL | 65 ng/mL | 229 ng/mL | 82.3 ng/mL | 360 ng/mL | 37.3 ng/mL | 202 ng/mL | 61.8 ng/mL | 29.8 ng/mL | 404 ng/mL | 292 ng/mL | 663 ng/mL | 101 ng/mL | 0.18 µg/mL | 0.049 µg/mL | 0.3 µg/mL |  |  | 
2 | EV046116 (antibody, human IgG1, kappa, V domains shown) VH: QVQLQESGPGLVKPSETLSLTCTVSGGSISRDYWSFIRQPAGKGLEWIGRIYHNGDTNYNPSLKSRVTMSQDTSKNQFFLRLRHVTAADTAVYYCAREGSAGTFGQADWGQGTLVIVYS VL: EIVMTQSPATLSVSPGERATLSCRASQSISNNLAWYQQKPGQAPRLLIYGASTRATGIPARFSGGGSGTEFTLTISSLQSEDFAVYYCQQYENWLLYTFGQGTKLEIKR | 54 ng/mL | 132 ng/mL | 341 ng/mL | 428 ng/mL | 497 ng/mL | 247 ng/mL | 279 ng/mL | 351 ng/mL | 190 ng/mL | 828 ng/mL | 1030 ng/mL | 3000 ng/mL | 800 ng/mL | 0.25 µg/mL | 0.31 µg/mL | 0.25 µg/mL | 1.62 nM | 0.000408 s⁻¹ | 252000 M⁻¹ s⁻¹
3 | EV046142 (antibody, human IgG1, lambda, V domains shown) VH: QVQLVQSGAEVKKPGSSVRVSCKASGGTFSTYGINWVRQARGQGLEWMGTVIPTFEKTYYAQGFQGRVTIAADGSKNTVYMELRRLTSEDSAIYFCTRFFTPYCSGGSCYLDLWGPGTLVTVSS VL: QSVLTQPPSVSGAPGQSVTISCAGSSSNIGAGYDVHWYQHLPGTAPRLLIYSNTNRPSGVPDRFSGSKSGASASLAITGLQAEDEADYYCQSYDSGVVFGGGTKLTVLR | 12.3 ng/mL | 66.4 ng/mL | 366 ng/mL | 243 ng/mL | 641 ng/mL | 97.1 ng/mL | 273 ng/mL | 212 ng/mL | 61.4 ng/mL | 1350 ng/mL | 443 ng/mL | 1570 ng/mL | 738 ng/mL | 0.22 µg/mL | 0.22 µg/mL | 0.42 µg/mL |  |  | 
4 | EV046143 (antibody, human IgG1, kappa, V domains shown) VH: QVQLVQSGAEVQKPGSSVKVSCKTSGDTFNNYALSWVRQAPGQGPEWMGRIIPLVEMANYAQKFQGRVTITADKSTTTIYMELSSLRSEDTAMYYCARDGYQGGFPYFFDSWGQGTLVTVSS VL: EVVLTQSPGTLSLSPGERATLSCRASQSVSNYLAWYQQKPGQAPRLLISAASSRATGIPDRFGGSGSGADFTLTISRLEPEDFAVYYCQQYGFSPGTFGQGTKVEIRR | 57.2 ng/mL | 886 ng/mL | 363 ng/mL | 186 ng/mL | 627 ng/mL | 26.6 ng/mL | 272 ng/mL | 157 ng/mL | 19.8 ng/mL | 1300 ng/mL | 402 ng/mL | 734 ng/mL | 96.7 ng/mL | 0.27 µg/mL | 0.13 µg/mL | 0.46 µg/mL |  |  | 
5 | EV046147 (antibody, human IgG1, lambda, V domains shown) VH: QVQLVQSGAEVKKPGASVKVSCKASGYTFSVYGISWVRQAPGHGLEWMGWISAYNGDRGYAQKVQGRITMTTDTSASTAYMELRSLTSDDTAVYYCATTSSGVPGIYWGQGSLVTVSS VL: SYALVQPPSVSVSPGQTARITCFGPALPKKYAYWYQHKSGQAPMLVIYEDTKRPSGIPQRFSGSTSGATATLTIRGAQVEDEADYYCYSTDSSGHERVFGGGTKLTVLG | 114 ng/mL | 506 ng/mL | 298 ng/mL | 406 ng/mL | 514 ng/mL | 2060 ng/mL | 253 ng/mL | 326 ng/mL | 1980 ng/mL | 612 ng/mL | 1070 ng/mL | 1180 ng/mL | 2410 ng/mL | 0.27 µg/mL | 0.31 µg/mL | 0.39 µg/mL |  |  | 
